Measured values as given in patent US20190144503A1 (REGENTS OF THE UNIVERSITY OF MINNESOTA, published 2019).
Like-named read-outs stand apart in the source and are kept apart here.

B1: Fn-AAZ clone 0.3.10 (fibronectin type III domain of SEQ ID NO: 3 conjugated to acetazolamide) (designed binder)
chain: MASSSDSPRNLEVTNATPNSLTISWDSYLDCAYYYRITYGETGGNSPSQEFTVPGYTNSVTISGLKPGQDYTITVYAVASSNDVSNPISINYRTEIDKPSQGS
modifications: acetazolamide (AAZ) conjugated through a maleimide-PEG linker to the single cysteine; PEG length not stated for this clone
notes: Expressed and purified clone, conjugated with maleimide-PEG-AAZ; also called first Fn-AAZ clone; first Fn-AAZ conjugate
B2: Clone 0.3.10 fibronectin type III domain (SEQ ID NO: 3) not conjugated to AAZ (designed binder)
chain: B1 chain
B3: Fn-AAZ clone 0.3.9 (fibronectin type III domain of SEQ ID NO: 4 conjugated to acetazolamide) (designed binder)
chain: MASSSDSPRNLEVTNATPNSLTISWDDSYCVIYYRITYGETGGNSPSQEFTVPGYTNSVTISGLKPGQDYTITVYAVTDYSKLDPSNPISINYRTEIDKPSQGS
modifications: acetazolamide (AAZ) conjugated through a maleimide-PEG linker to the single cysteine; PEG length not stated for this clone
notes: Expressed and purified clone, conjugated with maleimide-PEG-AAZ; also called second Fn-AAZ clone; second Fn-AAZ conjugate
B4: Clone 0.3.9 fibronectin type III domain (SEQ ID NO: 4) not conjugated to AAZ (designed binder)
chain: B3 chain

How the values were obtained:
[1] = target: T1, recombinant His-tagged human carbonic anhydrase 9 (human, UniProt Q16790 38-414); experiment: titration of the purified clone, Relative Binding to CA9 against concentration (x axis printed 'AAZ Concentration (nM)'); assay format not described
[2] = target: T1, recombinant His-tagged human carbonic …; experiment: binding of the purified clone to CA9 (FIG. 14B); method not stated
[3] = target: T1, recombinant His-tagged human carbonic …; experiment: titration of the purified clone, Relative Binding to CA9 against concentration (x axis printed 'AAZ Concentration (nM)'); assay format not described; remark: listed apart in the source

Row | Binder | Kd [1] [nM] | fold higher affinity than the Fn not conjugated to AAZ [2] [fold] | Kd [3] [nM]
1 | B1 | 60 | – | –
2 | B2 | 600 | – | –
3 | B3 | – | ~6 | ~30
4 | B4 | – | – | 170
